Biological target: human IR-B overexpressed on NIH 3T3 mouse fibroblast cells (human) (UniProt P06213)
Assay: cell-based or functional assay

Row | Substance | fold greater efficiency of Akt phosphorylation than the PTM-free analogue [fold] | log [EC50 (nM)], Akt phosphorylation (pAkt Ser473) [log nM] | fold less active than hIns, Akt phosphorylation assay [fold]
1 | sCon-Ins G1 (ligand) | 8 | 0.9 | 
2 | Con-Ins G1 (ligand) |  | 0.78 | 10

— US20220340636A1
